Patent US20220089743A1 (Chugai, published 2022)
Like-named read-outs stand apart in the source and are kept apart here.

Legend:
[1] = target: HLA-DQ2.2 on HBBB2.2 cells loaded with 33 mer gliadin peptide (human; wheat); experiment: cell-based or functional assay
[2] = target: T1, HLA-DQ2.5 on IHW09023 cells loaded with gamma 1 gliadin peptide (human; wheat); experiment: cell-based or functional assay
[3] = target: T2, HLA-DQ2.5 on IHW09023 cells loaded with 33 mer gliadin peptide (human; wheat); experiment: cell-based or functional assay
[4] = target: T3, HLA-DQ2.5 on IHW09023 cells loaded with gamma 4a gliadin peptide (human; wheat); experiment: cell-based or functional assay
[5] = target: T4, HLA-DQ2.5 on IHW09023 cells loaded with omega1/2 gliadin peptide (human; wheat); experiment: cell-based or functional assay
[6] = target: T5, HLA-DQ2.5 on IHW09023 cells loaded with gamma 2 gliadin peptide (human; wheat); experiment: cell-based or functional assay
[7] = target: T6, HLA-DQ2.5 on IHW09023 cells loaded with gamma 4d gliadin peptide (human; wheat); experiment: cell-based or functional assay
[8] = target: T7, HLA-DQ2.5 on IHW09023 cells loaded with gamma 3 gliadin peptide (human; wheat); experiment: cell-based or functional assay
[9] = target: T8, HLA-DQ2.5 on IHW09023 cells loaded with BC hordein peptide (human; barley); experiment: cell-based or functional assay
[10] = target: T1, HLA-DQ2.5 on IHW09023 cells loaded with …; experiment: cell-based or functional assay; remark: listed apart in the source
[11] = target: T2, HLA-DQ2.5 on IHW09023 cells loaded with …; experiment: cell-based or functional assay; remark: listed apart in the source
[12] = target: T3, HLA-DQ2.5 on IHW09023 cells loaded with …; experiment: cell-based or functional assay; remark: listed apart in the source
[13] = target: T4, HLA-DQ2.5 on IHW09023 cells loaded with …; experiment: cell-based or functional assay; remark: listed apart in the source
[14] = target: T5, HLA-DQ2.5 on IHW09023 cells loaded with …; experiment: cell-based or functional assay; remark: listed apart in the source
[15] = target: T6, HLA-DQ2.5 on IHW09023 cells loaded with …; experiment: cell-based or functional assay; remark: listed apart in the source
[16] = target: T7, HLA-DQ2.5 on IHW09023 cells loaded with …; experiment: cell-based or functional assay; remark: listed apart in the source
[17] = target: T8, HLA-DQ2.5 on IHW09023 cells loaded with …; experiment: cell-based or functional assay; remark: listed apart in the source
HLA-DQ5.1 on Ba/F3 cells = target: T9, HLA-DQ5.1 on Ba/F3 cells (human, limits assumed); experiment: FACS, Ba/F3 cells; raw MFI
T9 construct: whole, on cells; also called Ba/F3-HLA-DQ5.1
T9 MHC II alpha: not shown
T9 MHC II beta: not shown

HLA-DP on Ba/F3 cells = target: T10, HLA-DP on Ba/F3 cells (human, UniProt P20036 29-222; P04440 30-225, limits assumed); experiment: FACS, Ba/F3 cells; raw MFI
T10 construct: whole, on cells; also called Ba/F3-HLA-DP
T10 sequence (P20036 29-222 limits assumed, chain 1 of 4, other chains not shown): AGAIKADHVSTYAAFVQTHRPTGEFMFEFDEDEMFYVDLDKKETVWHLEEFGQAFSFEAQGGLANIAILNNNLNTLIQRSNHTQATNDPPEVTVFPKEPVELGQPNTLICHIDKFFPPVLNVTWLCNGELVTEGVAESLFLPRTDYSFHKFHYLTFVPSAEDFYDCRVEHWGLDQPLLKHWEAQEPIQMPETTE
T10 sequence (P04440 30-225 limits assumed, chain 2 of 4, other chains not shown): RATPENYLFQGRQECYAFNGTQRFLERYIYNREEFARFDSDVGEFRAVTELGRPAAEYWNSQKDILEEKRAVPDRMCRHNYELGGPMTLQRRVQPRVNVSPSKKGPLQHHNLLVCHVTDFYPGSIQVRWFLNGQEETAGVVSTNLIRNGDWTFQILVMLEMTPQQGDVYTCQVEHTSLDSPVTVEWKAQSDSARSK

HLA-DR on Ba/F3 cells = target: T11, HLA-DR on Ba/F3 cells (human, UniProt P01903 26-216; P79483 30-227, limits assumed); experiment: FACS, Ba/F3 cells; raw MFI
T11 construct: whole, on cells; also called Ba/F3-HLA-DR
T11 MHC II alpha: not shown
T11 MHC II beta: not shown

HLA-DQ6.3 on Ba/F3 cells = target: T12, HLA-DQ6.3 on Ba/F3 cells (human, UniProt P01920 33-230, limits assumed); experiment: FACS, Ba/F3 cells; raw MFI
T12 construct: whole, on cells; also called Ba/F3-HLA-DQ6.3
T12 MHC II alpha: not shown
T12 MHC II beta: not shown

HLA-DQ2.2 on Ba/F3 cells = target: T13, HLA-DQ2.2 on Ba/F3 cells (human, UniProt P01909 24-216, limits assumed); experiment: FACS, Ba/F3 cells; %MFI with IC17dK 0 and DQN0139bb 100
T13 construct: whole, on cells; also called Ba/F3-HLA-DQ2.2
T13 MHC II alpha: not shown
T13 MHC II beta: not shown

HLA-DQ8 on Ba/F3 cells = target: T14, HLA-DQ8 on Ba/F3 cells (human, UniProt P01909 24-216; P01920 33-230, limits assumed); experiment: as above
T14 construct: whole, on cells; also called Ba/F3-HLA-DQ8
T14 MHC II alpha: not shown
T14 MHC II beta: not shown

HLA-DQ2.5 on Ba/F3 cells = target: T15, HLA-DQ2.5 on Ba/F3 cells (human, UniProt P01909 24-216, limits assumed); experiment: as above
T15 construct: whole, on cells; MHC class II without a fused peptide; also called Ba/F3-HLA-DQ2.5

HLA-DQ7.3 on Ba/F3 cells = target: T16, HLA-DQ7.3 on Ba/F3 cells (human, UniProt P01909 24-216; P01920 33-230, limits assumed); experiment: as above
T16 construct: whole, on cells; also called Ba/F3-HLA-DQ7.3
T16 MHC II alpha: not shown
T16 MHC II beta: not shown

HLA-DQ7.5 on Ba/F3 cells = target: T17, HLA-DQ7.5 on Ba/F3 cells (human, UniProt P01909 24-216; P01920 33-230, limits assumed); experiment: as above
T17 construct: whole, on cells; also called Ba/F3-HLA-DQ7.5

B1: DQN0344H1013/L0620//DQN0385H1270/L0681-F6.v2 (bispecific antibody, V domains shown)
VH 1: QVQLVESGGGVVQPGRSLRLSCAASGFTFSSAYWMVWVRQAPGQGLEWMGAVYGGSDTTYYAKWTEGRFTISRDTSKNTLYLQMNSLRAEDTAVYYCAREPLNYYYYGELNVWGQGTLVTVSS
VL 1: DIQMTQSPSSLSASVGDRVTITCQATENIYSGLAWYQQKPGKAPKLLIYYVSTLAYGIPARFSGSGSGTDFTLTISSLEPEDFAVYYCQTYEDVSAVTFGQGTKVEIK
VH 2: QVQLVESGGGVVQPGRSLRLSCAASGFTFSEWYFMSWVRQAPGKGLEWVASIDTGSGSIDYAEWVEGRFTISRDNSKNTLYLQMNSLRAEDTAVYYCARDIGIDYNFWGPGTLVTVSS
VL 2: DIQMTQSPSSLSASVGDRVTITCQTTQSISSYLNWYQQKPGQPPKLLIYYASTKAEGIPARFSGSGLGTDFTLTISSLEPEDFAVYYCHYGISKVSFGQGTKVEIK
- IC50, HLA-DQ2.2, α1a gliadin TCR, 25 µM 33mer gliadin [1]: 1.62 ng/mL
- IC50, HLA-DQ2.2, α2 gliadin TCR, 1 µM 33mer gliadin [1]: 4.6 ng/mL
- IC50, γ1 gliadin TCR, 250 nM γ1 gliadin [2]: 5.85 ng/mL
- IC50, α1a gliadin TCR, 250 nM 33mer gliadin [3]: 0.63 ng/mL
- IC50, α1b gliadin TCR, 250 nM 33mer gliadin [3]: 1.42 ng/mL
- IC50, α2 gliadin TCR, 250 nM 33mer gliadin [3]: 0.53 ng/mL
- IC50, γ4a gliadin TCR, 25 µM γ4a gliadin [4]: 1980 ng/mL
- IC50, ω1 gliadin TCR, 25 µM ω1/2 gliadin [5]: 3.19 ng/mL
- IC50, ω2 gliadin TCR, 250 nM ω1/2 gliadin [5]: 0.49 ng/mL
- IC50, γ2 gliadin TCR, 250 nM γ2 gliadin [6]: 280 ng/mL
- IC50, γ4d gliadin TCR, 100 µM γ4d gliadin [7]: 27.8 ng/mL
- IC50, γ3 gliadin TCR, 100 µM γ3 gliadin [8]: 4.84 ng/mL
- IC50, BC hordein TCR, 250 nM BC hordein [9]: 25.2 ng/mL

B2: DQN0344H1013/L0620//DQN0385H1270/L0722-F6 (bispecific antibody)
heavy 1: QVQLVESGGGVVQPGRSLRLSCAASGFTFSSAYWMVWVRQAPGQGLEWMGAVYGGSDTTYYAKWTEGRFTISRDTSKNTLYLQMNSLRAEDTAVYYCAREPLNYYYYGELNVWGQGTLVTVSSASTKGPSVFPLAPSSKSTSGGTAALGCLVKDYFPEPVTVSWNSGALTSGVHTFPAVLKSSGLYSLSSVVTVPSSSLGTQTYICNVNHKPSNTKVDKRVEPKSCDKTHTCPPCPAPELRRGPSVFLFPPKPKDTLMISRTPEVTCVVVDVSHEDPEVKFNWYVDGVEVHNAKTKPREEQYNSTYRVVSVLTVLHQDWLNGKEYKCKVSNKALPAPIEKTISKAKGQPREPQVYTLPPSREEMTKNQVSLTCLVKGFYPSDIAVEWESNGQPENNYKTTPPYLDSDGSFFLYSKLTVDKSRWQEGNVFSCSVLHEALHAHYTREELSLSP
light 1: DIQMTQSPSSLSASVGDRVTITCQATENIYSGLAWYQQKPGKAPKLLIYYVSTLAYGIPARFSGSGSGTDFTLTISSLEPEDFAVYYCQTYEDVSAVTFGQGTKVEIKRTVAAPSVFIFPPSDEQLKSGTAEVVCLLNNFYPREAKVQWKVDNALQSGNSEESVTEQDSKDSTYSLSSTLTLSKADYEKHKVYACEVTHQGLSSPVTKSFNRGEC
heavy 2: QVQLVESGGGVVQPGRSLRLSCAASGFTFSEWYFMSWVRQAPGKGLEWVASIDTGSGSIDYAEWVEGRFTISRDNSKNTLYLQMNSLRAEDTAVYYCARDIGIDYNFWGPGTLVTVSSASTKGPSVFPLAPSSKSTSGGTAALGCLVEDYFPEPVTVSWNSGALTSGVHTFPAVLESSGLYSLSSVVTVPSSSLGTKTYICNVNHKPSNTKVDKRVEPKSCDKTHTCPPCPAPELRRGPSVFLFPPKPKDTLMISRTPEVTCVVVDVSHEDPEVKFNWYVDGVEVHNAKTKPREEQYNSTYRVVSVLTVLHQDWLNGKEYKCKVSNKALPAPIEKTISKAKGQPREPQVYTLPPSRKEMTKNQVSLTCLVKGFYPSDIAVEWESNGQPENNYKTTPPYLDSDGSFFLYSKLTVDKSRWQQGNVFSCSVLHEALHAHYTRKELSLSP
light 2: DIQMTQSPSSLSASVGDRVTITCQTTQSISSYLNWYQQKPGQPPKLLIYYASTKAEGIPARFSGSGLGTDFTLTISSLQPEDFAVYYCHYGISKVSFGQGTKVEIKRTVAAPSVFIFPPSDEQLKSGTAKVVCLLNNFYPREAKVQWKVDNALQSGNSKESVTEQDSKDSTYSLSSTLTLSKADYEKHKVYACEVTHQGLSSPVTKSFNRGEC
- IC50, γ1 gliadin TCR, 250 nM γ1 gliadin [10]: 1.03 ng/mL
- IC50, α1a gliadin TCR, 250 nM 33mer gliadin [11]: 0.27 ng/mL
- IC50, α1b gliadin TCR, 250 nM 33mer gliadin [11]: 1.25 ng/mL
- IC50, α2 gliadin TCR, 250 nM 33mer gliadin [11]: 0.33 ng/mL
- IC50, γ4a gliadin TCR, 25 µM γ4a gliadin [12]: 1150 ng/mL
- IC50, ω1 gliadin TCR, 25 µM ω1/2 gliadin [13]: 2.17 ng/mL
- IC50, ω2 gliadin TCR, 250 nM ω1/2 gliadin [13]: 0.22 ng/mL
- IC50, γ2 gliadin TCR, 250 nM γ2 gliadin [14]: 277 ng/mL
- IC50, γ4d gliadin TCR, 100 µM γ4d gliadin [15]: 10.1 ng/mL
- IC50, γ3 gliadin TCR, 100 µM γ3 gliadin [16]: 3.31 ng/mL
- IC50, BC hordein TCR, 250 nM BC hordein [17]: 9.7 ng/mL
- binding result (HLA-DQ5.1 on Ba/F3 cells): no binding (tested: 0.05 ug/mL)
- binding result (HLA-DP on Ba/F3 cells): no binding (tested: 0.05 ug/mL)
- binding result (HLA-DR on Ba/F3 cells): no binding (tested: 0.05 ug/mL)
- binding result (HLA-DQ6.3 on Ba/F3 cells): no binding (tested: 0.05 ug/mL)
- binding result (HLA-DQ2.2 on Ba/F3 cells): no binding (tested: 0.05 ug/mL)
- binding result (HLA-DQ8 on Ba/F3 cells): no binding (tested: 0.05 ug/mL)
- binding result (HLA-DQ2.5 on Ba/F3 cells): no binding (tested: 0.05 ug/mL)
- binding result (HLA-DQ7.3 on Ba/F3 cells): no binding (tested: 0.05 ug/mL)
- binding result (HLA-DQ7.5 on Ba/F3 cells): no binding (tested: 0.05 ug/mL)
